Data: the RNAGym collection of RNA variant scans (doi:10.7554/elife.90254)

B1: LINE1-full (parent)
chain: UACGUAGGUGGUUUUCCCCUGAUAGUGCUAAGGGGGCCUGGAAGUUUGGACUGGGCAGAGCUCAACACAGCGUGGCAAAGUGGCUGUGGCUAGACUGCCUCUCUGGAUUCCUCGUCACUCAGCAGGGCAUCUCUGAGAGAAAUGCC

Variants of: B1
Experiment: self-cleavage, relative activity (ratio to wild type); higher = more cleavage; in vitro, sequencing; the parent is a self-cleaving ribozyme
A77U C131U gave a self-cleavage of 1.19. With A78U C116G the self-cleavage was 2.13. G74U U134C gave a self-cleavage of 1.88. Variant G74A A117C has a self-cleavage of 1.63. Work on G74A U119C yielded a self-cleavage of 1.71. With C76A A142G the self-cleavage was 1.87. Work on G75A A140G yielded a self-cleavage of 0.88. For G74C C99U, the self-cleavage was 0.61. A77G U108C gave a self-cleavage of 2.51. G75A U115A gave a self-cleavage of 1.12. With U73C U108C the self-cleavage was 0.95. Variant A77C U100C has a self-cleavage of 1.53. With C76A U87C the self-cleavage was 0.38. Variant C76A U87G has a self-cleavage of 0.11. Work on A77G C90A yielded a self-cleavage of 0.03. G74A A140U gave a self-cleavage of 1.31. With G74A A140G the self-cleavage was 1.22. A77U C145A gave a self-cleavage of 1.75. With A78G U91C the self-cleavage was 0.29. Variant A77U A129U has a self-cleavage of 1.24. U73C U115A gave a self-cleavage of 1.58. Work on G74C A140G yielded a self-cleavage of 1.53. For A78G G114C, the self-cleavage was 1.09. With A78G G114A the self-cleavage was 0.83. Work on A78U A117C yielded a self-cleavage of 2.72. With A78U A117G the self-cleavage was 2.93. A78U A107G showed a self-cleavage of 2.47. With G75U U81C the self-cleavage was 0.83. For A78G A79U, the self-cleavage was 0.52. In the case of A77G U130C, the self-cleavage is reported as 2.56. With G74A U108C the self-cleavage was 1.48. Work on G75C U108C yielded a self-cleavage of 0.77. With A78G U96A the self-cleavage was 0.06. For A78G A117G, the self-cleavage was 0.89. Variant A77C U115C has a self-cleavage of 0.6. Variant U73G U134A has a self-cleavage of 0.88. Work on C76U A117U yielded a self-cleavage of 2.41. A77U A92U showed a self-cleavage of 0.63. With A77U A92G the self-cleavage was 0.05. With C76U U130C the self-cleavage was 2.22. In the case of C76U U115C, the self-cleavage is reported as 2.12. Variant G75C A77U has a self-cleavage of 0.75. Work on G75C A77G yielded a self-cleavage of 0.8. Work on A77U G106A yielded a self-cleavage of 1.31. Variant G74A U85A has a self-cleavage of 0.05. U73G U130C showed a self-cleavage of 2.25. Variant C76A U134A has a self-cleavage of 0.84. G75A G126A showed a self-cleavage of 0.87. In the case of A78U U100A, the self-cleavage is reported as 1.13. With C76U A129G the self-cleavage was 2.87. In the case of A78U G127C, the self-cleavage is reported as 2.34. A77G A138G gave a self-cleavage of 2.3. A78U U96A gave a self-cleavage of 0.07. For A77U U112A, the self-cleavage was 1.1. G75U A142U showed a self-cleavage of 0.84. Work on A77U U96C yielded a self-cleavage of 0.1. With A77U U96G the self-cleavage was 0.27. A78G G127A showed a self-cleavage of 1.16. For A78C U102C, the self-cleavage was 2.53. For C76U A142G, the self-cleavage was 2.37. With C76U U119C the self-cleavage was 2.91. Variant G75A A78G has a self-cleavage of 0.7. In the case of G75A U109A, the self-cleavage is reported as 0.99. G75A U109C showed a self-cleavage of 1.1. G75A U104A gave a self-cleavage of 0.87. In the case of G75A U104C, the self-cleavage is reported as 1.43. Variant A78G U87C has a self-cleavage of 0.15. A78G U87A gave a self-cleavage of 0.1. Variant A77U U130G has a self-cleavage of 1.86. Variant A77C A124G has a self-cleavage of 0.32. Variant A77U U87A has a self-cleavage of 0.05. A77U U87C showed a self-cleavage of 0.09. Variant A77U A121G has a self-cleavage of 1.6. With A77U G127A the self-cleavage was 1.48. With A77G C113U the self-cleavage was 2.28. In the case of A77G C113A, the self-cleavage is reported as 2.1. Work on A77C U132C yielded a self-cleavage of 1.19. Work on A78G U102G yielded a self-cleavage of 0.2. For A78G U102C, the self-cleavage was 1.53. With C76U C98U the self-cleavage was 0.61. A77U U81A showed a self-cleavage of 1.89. For A78G A138G, the self-cleavage was 1.69. A78G A138C gave a self-cleavage of 1.31. In the case of A77U G93C, the self-cleavage is reported as 0.03. A77U G93U gave a self-cleavage of 0.04. A78G G135A gave a self-cleavage of 1.17. A78G A124G showed a self-cleavage of 0.99. With A78G A124C the self-cleavage was 1.59. A77G G97C gave a self-cleavage of 0.65. For A77G G97U, the self-cleavage was 0.08. A78G U119G showed a self-cleavage of 1.04. With G74U G114A the self-cleavage was 1.21. Variant U73G A136U has a self-cleavage of 0.81. For U73C U134G, the self-cleavage was 1.7. In the case of A78U U104C, the self-cleavage is reported as 0.87. With A78U U104A the self-cleavage was 1.8. For A77C U108C, the self-cleavage was 1.6. For G74A C84U, the self-cleavage was 0.07. A78G U132C gave a self-cleavage of 1.39. With A78G U132A the self-cleavage was 1.62. Variant A78U U91G has a self-cleavage of 0.11. For G75U U85C, the self-cleavage was 0.07. For U73G U115C, the self-cleavage was 2.26. A77G U132A gave a self-cleavage of 2.34. For A77U A79G, the self-cleavage was 1.48. Work on C76U A136G yielded a self-cleavage of 1.75. In the case of G75U C90U, the self-cleavage is reported as 0.03. Variant A78U A92U has a self-cleavage of 1.02. Work on A77G A141U yielded a self-cleavage of 1.89. Variant A77G A141G has a self-cleavage of 2.25. Variant A78G C90U has a self-cleavage of 0.03. For G75A G86C, the self-cleavage was 0.07. Work on G75A U87C yielded a self-cleavage of 0.12. Work on A77C U143C yielded a self-cleavage of 1.12. Work on C76U G137U yielded a self-cleavage of 1.87. Work on A78C U108C yielded a self-cleavage of 2.16. With A77U U115C the self-cleavage was 1.22. For G74A A124G, the self-cleavage was 0.51. With G74A A124C the self-cleavage was 1.58. For U73G U132C, the self-cleavage was 1.58. Work on A78G C98G yielded a self-cleavage of 0.11. Work on A78G C98U yielded a self-cleavage of 0.47. For A77G G127U, the self-cleavage was 2.58. A77G U96A showed a self-cleavage of 0.13. A78U A140U showed a self-cleavage of 1.72. Work on A78C U109C yielded a self-cleavage of 2.32. A77G A136U gave a self-cleavage of 1.92. Variant A77G A136G has a self-cleavage of 2.64. With A77G U104A the self-cleavage was 1.64. In the case of A77G C98A, the self-cleavage is reported as 0.23. Variant A77G C98G has a self-cleavage of 0.21. A78G C116U showed a self-cleavage of 1.29. A77U A140G gave a self-cleavage of 1.37. For A77U A140U, the self-cleavage was 1.23. Work on A78G U108C yielded a self-cleavage of 1.64. With A78G U108A the self-cleavage was 1.41. In the case of A78G U108G, the self-cleavage is reported as 1.38. G74A U104C showed a self-cleavage of 1.34. G75A A117U gave a self-cleavage of 1.53. For G74A A129G, the self-cleavage was 1.53. Work on G74A A129U yielded a self-cleavage of 1.09. Work on C76A yielded a self-cleavage of 1.71. C76G showed a self-cleavage of 2.01. Work on C76U yielded a self-cleavage of 2.18. A77C G93A showed a self-cleavage of 0.06. Variant A77G U109G has a self-cleavage of 0. For A77G G125A, the self-cleavage was 2.43. A77G G125U showed a self-cleavage of 2.41. Variant C76A A141G has a self-cleavage of 2.26. Work on A77C A121G yielded a self-cleavage of 1.55. With A77G A121G the self-cleavage was 1.69. With G74A A92U the self-cleavage was 0.1. With A77G U115A the self-cleavage was 2.25. A77G U115C showed a self-cleavage of 2.05. G74U A140G showed a self-cleavage of 1.99. For A77G G88A, the self-cleavage was 0.09. A77U U109C gave a self-cleavage of 0.98. In the case of U73G U87A, the self-cleavage is reported as 0.03. Variant A77C U96C has a self-cleavage of 0.09. A77G C128G gave a self-cleavage of 1.86. In the case of A77G G139U, the self-cleavage is reported as 2.41. In the case of A78G G144A, the self-cleavage is reported as 1.3. G75U U104C gave a self-cleavage of 1.32. In the case of C76U A77U, the self-cleavage is reported as 2.05. G75A U102A gave a self-cleavage of 1.36. A78C A138G showed a self-cleavage of 1.84. Variant G74A U102G has a self-cleavage of 0.56.
